Results from the DeepSol protein solubility set.

Assay: soluble on expression in E. coli; label from the status in PepcDB or PDB records

Sequence	soluble on expression in E. coli
MNIIDFNKPVKRSFRGNTAPAPPLEKVLTVILKTDVPVLMGICSDGLRSNSAILGGEFQAEYFSGSVLSGGGNVLVELSSELAFLETRFTLITQLGELINVECKGVLLMDEEGQQELQSGVWPISEGHYQCTCTPRFQVSLGPNDWLEKSAFIGKIDYIQRNETLISFYRMKL	not soluble
MNMAEVSKNQVEKALETVIYPGSGKNIVALGMVSEIFIADAKAYFSITVPADKASEMEPLRLAAERAAKSVEGIAGAVVALTADRKPGQQQPAPAGPTPARPAAATGRPAAAPGRPTPQPGSSKVGVPGVRAIIAVASGKGGVGKSTTAVNLALGLQALGLKVGMLDADIYGPSLPRLLKISGRPKQQEDRIILPMENYGLKVMSMGFLVDEEAAMIWRGPMVQSALMQMLREVAWGELDVLVLDMPPGTGDAQLTIAQQVPLAGAVIVSTPQDLALLDARKGITMFRKVEVPLLGVIENMSYFIAPDTGARYDIFGHGGAKAEAERIGVPFLGEVPLTISIREMSDAGTPVVVAEPDGPQAAIYREIAEKVWARMGADERKAAPKIVFELEHHHHHH	not soluble
MAHHHHHHMFSEPVYLTIGDEYEKRAVKPSKSRGRNFIVPVKRSPHITDAVFQKSFISLAVGDEYLPPPPGGTFRQPAEKKPGEPQPLPFKPPSRPHKSCGSGSYYGTFNEKNPPKHEPETTIAEVKKSGANAPAGTVRKPNLYTNPGKKGTYGYTGLTLGRAGEVQYISDPVGCCSGQRTHSPRTQAPFSAAVKCGGCFDEGPHGFSTVYGMNKPLPMRKVPPQRVLPPMKPWRPAGALVREITRHPEYQEDPYDLKEKRLREERLKEQSHKPWFPCGTDAYRHIYTYPVPYNPPPVV	not soluble
MEHEGLLVAEREIEVNNYDIDAMGIVSNIVYIRWFEDLRTIFINEYMTFSEMMKEHISPILMKTEIEYKVPITIHDKPVGRCWFVKAGRMKWVFKFEITSGDKVHCIGQQTGGFLDLERQRITKMPLEHHHHHH	not soluble
MSLQVTDVEIAQYYQDNKAQFMTQHLAHIQFANEQDAKVAYEELQKGANFADVAKAKSLDKISGENGGDLGWVNENELPKAFEDAAAALQVGQYSQPINVDGNYHIVLVQERKAQSLENVKAQIADLVRKSLMESRYFSLEKQASDKAFEDSKSLNTAAQAAGVKVQESDYFSRQNVPAGLNFPNVIYTIFESDTTNVGMNSEPINVGDYHTIIVRVLDRKAEGVKSLEEAKIDIETFLKRQKAENALNGKAQQAVKKLSENPESKVDGINFSSEQTFTLSENKDPILTNGIFSIAKPESSKALYQVVHNSNGDVVVVALNKVEQGSLSEKELSQFAMQLLRSHQSELQVQLIQGLRERAKIEVNDSFINQDDEAQEGHHHHHH	soluble
MSLKVSAHNGNSDPSGAVQRRQSFRKSKTEDTVGTGNNGAANGGGGGAAANNNQMLENDLLSKYMGNQSPARQQVKKNLLNGTSGGGESVPAKPKTYDARCYVQNGSINFGKIITDEVLAADYDLVEAAKKMSDFAGTTALIAVIHRTKLIVANVGDSRGVMCDFKGNAIPLSFDHKPQQVREQKRIADAGGFIAFKGVWRVAGILATSRALGDYPLKEKNLVIANPDVLSFDLVDHRPQFLILASDGLWDTFTNEEAVAYVRERLDEPHFGAKSIALQSYSRGSVDNITVLVIVLKNGRYEIGSSSNEGHHHHHH	soluble
MEEAEKPLQVAAVDSSVPRTAELAGITTLDDPLGHMPERFDAFICYCPSDIQFVQEMIRQLEQTNYRLKLCVSDRDVLPGTCVWSIASELIEKRCRRMVVVVSDDYLQSKECDFQTKFALSLSPGAHQKRLIPIKYKAMKKEFPSILRFITVCDYTNPCTKSWFWTRLAKALSLPLEHHHHHH	soluble
MGSDKIHHHHHHMKCPTETLPMMRCNQILDAAERLIESQGIVSFKFSQLAKEVGCSTGTLYKFFERKEDVLVCLFLRSATSNHLPIFIDKHPELSELEKVLLPVLFTFETISRSKSFFTLRSVSVNTMVWQLASDEKVERFKKRINAFWGWFTDSLHAAVEQGELQATPLQIKELVQGLTFYLTGSLTQFESQLIAPEYLSNRRETCYRHLAKLMGQYKWNQALTPELFDSLEARTKAFFDQHYRDHMTCAACSALSGVNLKDRPACVRQAYQ	not soluble
MGSDKIHHHHHHMRIEITPISESALVCRLNAPSELGKQQKLWAFAAALGQHDRIEEVVVGMNNLTVFTRFDTDLATLADELQYVWEHTAVTDHQGKLVEIPVCYGGEYGPDLAEVAAFHQTVISEIVRRHTAQTYTVFMMGFQPGFPYLGGLPEALHTPRRAVPRTSVPAGSVGIGGSQTGVYPFASPGGWQIIGRTELPLFRADLNPPTLLAAGDQVRFVAERIEP	not soluble
MGSDKIHHHHHHMEKTLVIEHDGEKAVVWETPQIFSENDYDYEVLEKALENTGGPLKEWRKKKYQEYKEWGFPRWKRCNLDGMSLPELSFKRIDLDVDISLLEKLDFEGAHRKFVLLGDTFFTDFRVYGDGKHMMRFDGDGIENVLVVVEKEAEIYKLSSTDRFRNTVMRILVKKNASLKFFNLDFFGNFSFDNVFIVLEEGARLVLRDFKAFGYRKTGHILVKLNKSSKADMKSFFYQNGSGITDLLYLMRFEGEDAEGKLKGNGVVDGAGKIVFRGILDVKRGSKNIVAEETEHTLVLSPDARMDAIPSLWVDENDVTASHSASSSSLDEDELFYLMTRGVDEIESKKLIVRGVFNELLDELDESVKGEVENVVNRIV	not soluble
MLMVVPLSEMGPGDKGIVVNILGGHNARQKLVSMGLTPGATIQVLESHPMGPIIISVGGVRFAIGKGLAGRVMVRKL	soluble
MGSDKIHHHHHHMDTKQTFLEDLKSRDNIKLSLMVMKIIFRETDKLICILADRTGEIKASVPLKDGDIKQGMVIQINGSKNVNLEVKSYKIIRDYNISDYLPTVKRPIEDIMNEIELYTNKYVLSKEGRALNDYFFKDEEFLEKFKKGIGGVSMHHNYIGGLAEHTLNVMKITAKLSEKYKCRRMEVAVLAAKLHDIGKVYEYDCNGPFKYTMRGQMEGHIVIGVELVDRAVRENLNLYPEDFVNRIKGCIVQHHGKLEFGSPREMNMEESFIINYADSIDATMNKISQLKEKTEPDTWSEFDRRIERKLYL	not soluble
MSLKATYSMLSQVTFPLAEAGYYVVPVALADETFRQNGLTSAGDVHQVSPAKLREIYGADAALYVTVSDYGTRYMVISSATIVTASAKLVDLRSGTTLWTGSATASSEEGNGGNNGGLVGMLITAAVKQIINSSVEDAGYPIAGMTSARLLSAGQPGGLLYGPRSPRYGSDEGHHHHHH	soluble
MSEDIFDAIIVGAGLAGSVAALVLAREGAQVLVIERGNSAGAKNVTGGRLYAHSLERIIPGFADQAPIERMITHEKLAFMTDNGAMTIDYCNGEDASASQVSYSVLRSKFDAWLMEQAEEAGAQLITGIRVDNVVQRDGKVVGVEADGDILEAKVVILADGVNSLLAEKLGMTKRVEASHVAVGVKELIELPKLVIEDRFQLQGNEGAACLFAGAPTDGLMGGGFLYTNETTLSLGLVCGLHHLKDAKKSVPQMLEDFKQHPAVAPLIAGGKLVEYAAHVVPEAGMNMQPELVGDGVLIAGDAAGMCMNLGFTIRGMDLAISAGEAAAKTVLSAMKRDDFSKQSLGEYRQHLDEGPMRDMRMYQKLPAFLDNPRMFTAYPEMAVNIARDLFTVDGSAPVPMRKKILRHAKKVGFINLMKDGLKGVTVL	not soluble
MSLAEPDDDWLHVEGTNIVDKYGNKVWITGANWFGFNCRERMLLDSYHSDIIADIELVADKGINVVRMPIATDLLYAWSQGIYPPSTDTSYNNPALAGLNSYELFNFMLENFKRVGIKVILDVHSPETDNQGHNYPLWYNTTITEEIFKKAWVWVAERYKNDDTIIGFDLKNEPHTNTGTMKIKAQSAIWDDSNHPNNWKRVAEETALAILEVHPNVLIFVEGVEMYPKDGIWDDETFDTSPWTGNNDYYGNWWGGNLRGVKDYPINLGKYQSQLVYSPHDYGPIVYEQDWFKGDFITANDEQAKRILYEQCWRDNWAYIMEEGISPLLLGEWGGMTEGGHPLLDLNLKYLRCMRDFILENKYKLHHTFWCINIDSADTGGLFTRDEGTPFPGGRDLKWNDNKYDNYLYPVLWKTEEGHHHHHH	not soluble
MEDLDALWERYREAVRAGGNPQALYQEMVWPALLALWREKPRVYPFPQAFAVSVHTLGTSPEATALAILGAGAERVYVLHTPESARFLPRLRQDTGKDLYPVEIGKSDVEAIYREVKRLLEKHPEVPVALDLTSGTKAMSAGLAAAGFFFQRFYPKVRVVYVDNEDYDPELRRPRAGTEKLRILPNPHEALAEVDALFAKELYGKGEFGQAAAYFRGMVGRTGNQAYALYALLAEMYRAWRALDFGEALKAGRKLLGQLSQNVWLNHPLNARREALEAQVALLEAVDRFLKARDFALKEGVYGLARTLLHLAQEAKEEAAVLAALYAYRALELLLQERLALLGRRAEAPGLSPEEAEALRKALAELLGVLPEEVRLPAKLGLLDLLAFLRLKGDEALGRLSLAELRGLAGALKGRNSALLVHGFDVPSPKAVEGIARLAQGLLQDLEARTALGPLSPEPVPLGF	soluble
MPSDAPIDFTGLIRASDLVVCGQATAEPLTLTEALMAQAADLPPFRLMVGPVFSDTFAAAPPNVSFVSYGVIGHARKLARAGRLDVIPSNYSAFCADFAAGRHRADVVLVQLAEAPDGRLSASLSCDYVIDAARRARLVIAEINPDAPFTYGAEWPGEVPIHIRVAARRKPVELPSGALDDVSRKIAANAAGLIADGATLQFGVGKIPDAILSSLVHARDLGIHSGLINDAVVELIERGVVTNARKGIDPGVTVTNQLIGTQRLYRFAHQNRSVRMQPAAYTHDHGVLGRINRLTAINSALQVGLDGSVNAETLNGVAIGAIGGQLDFVRGANASPGGRALIALPATAPDGSSRIVARVETVTTPRADVDVIVTEWGVAELRGCSLAERARQMIAIAAPEHRDRLAEQARTIALEHHHHHH	not soluble
MTRQRFISDDHYKFQSEHFIRLHGCDISLFPLEIKGKESISDVYSYEIKCFSRTDHNSLDKLHGTRLSCEIGEQYNSLPARFIHGVVTKVIYNYDNSMQHTCIIILQPEIAELASGKRTRVWSNIKPSDIVSTILEDSLFSPPQVILYKEQNLLEYKIQYQESDLDFINRILSEAGIYYFFVHNRDKHIMTLADDPASHPKASYDKLEHLPCENLKESRHGYIREWSFTESLKCPSVTLSGYNESNVSEITIKSESKLTDVKPSKGVYEDIIPERKRELIKKRSEALIASCDSELKIWSGKTDSWWLSCGECFSLDKQDYRITSLYLNAVNNDNEHAGLCYCDLCASDNKSSLNFSREFKTPIIPGVLLARVVGPDSEEYYTDDNGRVKISFLWGEKSAAGTDKTSCWVRVSQVWSGEGFGSQFIPRIGSEVLVSFIQGNPDYPVIVGTVYNGQNTSPFSLPENNCKSGFITRSVKNGKKGEGHQLVFDDKEGEEKVIVTSSGDSLLTVKKDMISTINRSMSLTIAEGRNAEIKRGNDRLVLKEGDLHNDVHGNINIKVSNGDYNLKVSGGSGSLITDKNLTLESTQSIKIKVGANEITISTSGIDIKAAKITIEGQVSAEVKAATLKFESQAISEVKGTMLTLQGSAMTQIKGGIVNIG	not soluble
MHDTEKSDSGIVAEKPTNKAGLLAAEWAEPRPGTKGNAEQQRMHRTQGRARMTQSLDRVRTAARLRKKDRFTALFHHINVDTLRAAFFALRRKAAPGVDGMTWEDYEEDLEPRLADLHKRVQRGAYRPQPSRRTYIPKADGKQRPLAIAALEDKIVQGANRHRAQRHLRRRLLWLFLRVSARQRTTAAALEHHHHHH	soluble
MKNTKLLLAIATSAALLTGCQNTHGIDTNMAISSGLNAYKAATLSDADAKAIANQGCAEMDSGNQVASKSSKYGKRLAKIAKALGNNINGTPVNYKVYMTSDVNAWAMANGCVRVYSGLMDMMNDNEIEGVLGHELGHVALGHSLAEMKASYAIVAARDAISATSGVASQLSRSQLGDIAEGAINAKYSRDKESEADDFSFDLLKKRGISTQGLVGSFEKLASLDGGRTQSMFDSHPPSTERAQHIRDRIASGKLEHHHHHH	soluble
